B1: UGT76G1var7: UGT76G1 variant, mutations F22L_I43V_A239V (protein, UniProt Q6VAB4 1-458, looked up, variant F22L I43V A239V)
UDP-glycosyltransferase 76G1: MENKTETTVRRRRRIILFPVPLQGHINPILQLANVLYSKGFSVTIFHTNFNKPKTSNYPHFTFRFILDNDPQDERISNLPTHGPLAGMRIPIINEHGADELRRELELLMLASEEDEEVSCLITDALWYFAQSVADSLNLRRLVLMTSSLFNFHAHVSLPQFDELGYLDPDDKTRLEEQASGFPMLKVKDIKSAYSNWQILKEILGKMIKQTKASSGVIWNSFKELEESELETVIREIPVPSFLIPLPKHLTASSSSLLDHDRTVFQWLDQQPPSSVLYVSFGSTSEVDEKDFLEIARGLVDSKQSFLWVVRPGFVKGSTWVEPLPDGFLGERGRIVKWVPQQEVLAHGAIGAFWTHSGWNSTLESVCEGVPMIFSDFGLDQPLNARYMSDVLKVGVYLENGWERGEIANAIRRVMVDEEGEYIRQNARVLKQKADVSLMKGGSSYESLESLVSYISSL
B2: UGT76G1var12: UGT76G1 variant, mutations L243P_K303G_A352G (protein, UniProt Q6VAB4 1-458, looked up, variant L243P K303G A352G)
UDP-glycosyltransferase 76G1: B1 UDP-glycosyltransferase 76G1 with L22F, V43I, V239A, L243P, K303G, A352G
B3: UGT76G1var24: UGT76G1 variant, mutations A239I_P272A_Q425E (protein, UniProt Q6VAB4 1-458, looked up, variant A239I P272A Q425E)
UDP-glycosyltransferase 76G1: B1 UDP-glycosyltransferase 76G1 with L22F, V43I, V239I, P272A, Q425E
B4: UGT76G1var16: UGT76G1 variant, mutations F265I_P272A_I335V (protein, UniProt Q6VAB4 1-458, looked up, variant F265I P272A I335V)
UDP-glycosyltransferase 76G1: B1 UDP-glycosyltransferase 76G1 with L22F, V43I, V239A, F265I, P272A, I335V
B5: UGT76G1var11: UGT76G1 variant, mutations F22L_A33G_V310I (protein, UniProt Q6VAB4 1-458, looked up, variant F22L A33G V310I)
UDP-glycosyltransferase 76G1: B1 UDP-glycosyltransferase 76G1 with A33G, V43I, V239A, V310I
B6: UGT76G1var27: UGT76G1 variant, mutations A239I_L379A_V394I (protein, UniProt Q6VAB4 1-458, looked up, variant A239I L379A V394I)
UDP-glycosyltransferase 76G1: B1 UDP-glycosyltransferase 76G1 with L22F, V43I, V239I, L379A, V394I
B7: UGT76G1var25: UGT76G1 variant, mutations T284L_Q342K_Y397Q (protein, UniProt Q6VAB4 1-458, looked up, variant T284L Q342K Y397Q)
UDP-glycosyltransferase 76G1: B1 UDP-glycosyltransferase 76G1 with L22F, V43I, V239A, T284L, Q342K, Y397Q
B8: UGT76G1var10: UGT76G1 variant, mutations A33G_L246F_Q342E (protein, UniProt Q6VAB4 1-458, looked up, variant A33G L246F Q342E)
UDP-glycosyltransferase 76G1: B1 UDP-glycosyltransferase 76G1 with L22F, A33G, V43I, V239A, L246F, Q342E
B9: UGT76G1var14: UGT76G1 variant, mutations A239I_F265I_V396F (protein, UniProt Q6VAB4 1-458, looked up, variant A239I F265I V396F)
UDP-glycosyltransferase 76G1: B1 UDP-glycosyltransferase 76G1 with L22F, V43I, V239I, F265I, V396F
B10: UGT76G1var21: UGT76G1 variant, mutations A239V_V300A_K303G (protein, UniProt Q6VAB4 1-458, looked up, variant A239V V300A K303G)
UDP-glycosyltransferase 76G1: B1 UDP-glycosyltransferase 76G1 with L22F, V43I, V300A, K303G
B11: UGT76G1var23: UGT76G1 variant, mutations T263S_G348P_A352G (protein, UniProt Q6VAB4 1-458, looked up, variant T263S G348P A352G)
UDP-glycosyltransferase 76G1: B1 UDP-glycosyltransferase 76G1 with L22F, V43I, V239A, T263S, G348P, A352G
B12: UGT76G1var13: UGT76G1 variant, mutations L243A_S357C_A385T (protein, UniProt Q6VAB4 1-458, looked up, variant L243A S357C A385T)
UDP-glycosyltransferase 76G1: B1 UDP-glycosyltransferase 76G1 with L22F, V43I, V239A, L243A, S357C, A385T
B13: UGT76G1var9: UGT76G1 variant, mutations E231A_D301N_G348P (protein, UniProt Q6VAB4 1-458, looked up, variant E231A D301N G348P)
UDP-glycosyltransferase 76G1: B1 UDP-glycosyltransferase 76G1 with L22F, V43I, E231A, V239A, D301N, G348P
B14: UGT76G1var20: UGT76G1 variant, mutations S375M_K393G_Y397E (protein, UniProt Q6VAB4 1-458, looked up, variant S375M K393G Y397E)
UDP-glycosyltransferase 76G1: B1 UDP-glycosyltransferase 76G1 with L22F, V43I, V239A, S375M, K393G, Y397E
B15: UGT76G1var15: UGT76G1 variant, mutations F41L_L246F_Q425E (protein, UniProt Q6VAB4 1-458, looked up, variant F41L L246F Q425E)
UDP-glycosyltransferase 76G1: B1 UDP-glycosyltransferase 76G1 with L22F, F41L, V43I, V239A, L246F, Q425E
B16: UGT76G1var8: UGT76G1 variant, mutations E224A_Q266S_Q342E (protein, UniProt Q6VAB4 1-458, looked up, variant E224A Q266S Q342E)
UDP-glycosyltransferase 76G1: B1 UDP-glycosyltransferase 76G1 with L22F, V43I, E224A, V239A, Q266S, Q342E
B17: UGT76G1var26: UGT76G1 variant, mutations S241I_F265L_F377C (protein, UniProt Q6VAB4 1-458, looked up, variant S241I F265L F377C)
UDP-glycosyltransferase 76G1: B1 UDP-glycosyltransferase 76G1 with L22F, V43I, V239A, S241I, F265L, F377C
B18: UGT76G1var18: UGT76G1 variant, mutations L243P_S274G_N409R (protein, UniProt Q6VAB4 1-458, looked up, variant L243P S274G N409R)
UDP-glycosyltransferase 76G1: B1 UDP-glycosyltransferase 76G1 with L22F, V43I, V239A, L243P, S274G, N409R
B19: UGT76G1var19: UGT76G1 variant, mutations E224D_E229A_Q432E (protein, UniProt Q6VAB4 1-458, looked up, variant E224D E229A Q432E)
UDP-glycosyltransferase 76G1: B1 UDP-glycosyltransferase 76G1 with L22F, V43I, E224D, E229A, V239A, Q432E
B20: UGT76G1var17: UGT76G1 variant, mutations F265L_Q266E_Q342K (protein, UniProt Q6VAB4 1-458, looked up, variant F265L Q266E Q342K)
UDP-glycosyltransferase 76G1: B1 UDP-glycosyltransferase 76G1 with L22F, V43I, V239A, F265L, Q266E, Q342K
B21: UGT76G1var22: UGT76G1 variant, mutations E231A_V310I_R334K (protein, UniProt Q6VAB4 1-458, looked up, variant E231A V310I R334K)
UDP-glycosyltransferase 76G1: B1 UDP-glycosyltransferase 76G1 with L22F, V43I, E231A, V239A, V310I, R334K

Consider 21 molecules from patent US11653679B2, “High-purity steviol glycosides” (PureCircle Sdn Bhd, priority 2014, dated 2023).

Residue numbers refer to the chain shown, from its start.

This series is described as follows: Directed evolution of UGT76G1, Rebaudioside D to Rebaudioside M, round 1 (Example 26). Type of series: biochemical. The following applies: 100 μL fresh lysate, 0.5 mM Rebaudioside D, 30° C., pH 7.2. How it is done: Lysis was performed by addition of Bugbuster® Master mix (Novagen®) to the thawed cells and the lysate was recovered by centrifugation. Activity tests were performed with 100 μL of fresh lysate that was added to a solution of Rebaudioside D (final concentration 0.5 mM), MgCl2 (final concentration 3 mM) and UDP-Glucose (final concentration 2.5 mM) in 50 mM phosphate buffer pH 7.2.
The reaction was allowed to run at 30° C. and samples were taken after 2, 4, 7 and 24 h. to determine conversion and initial rate by HPLC (CAD detection) using the analytical method that was described above for the transformation of Rebaudioside D to Rebaudioside M. The results are depicted in the following table.
Consider B1, for which the “conversion Reb D to Reb M after 24 h” value was 0.2% and the initial rate is −6.0E+04 Reb M area/min.
Consider B2, for which the “conversion Reb D to Reb M after 24 h” value stood at 0.5% and the initial rate is given as 8.7E+04 Reb M area/min.
As for B3, the “conversion Reb D to Reb M after 24 h” value stood at 31.0% and the initial rate came to 2.1E+07 Reb M area/min.
Molecule B4 yielded an initial rate of 5.8E+06 Reb M area/min.
Regarding B5, the “conversion Reb D to Reb M after 24 h” value is recorded as 0.4% and the initial rate is listed as 3.8E+04 Reb M area/min.
For B6, the “conversion Reb D to Reb M after 24 h” value is listed as 29.0% and the initial rate came to 1.5E+07 Reb M area/min.
For B7, the “conversion Reb D to Reb M after 24 h” value was 0.9% and the initial rate came to 6.3E+04 Reb M area/min.
With B8, the “conversion Reb D to Reb M after 24 h” value was found to be 0.3% and the initial rate is reported as −7.7E+02 Reb M area/min.
In the case of B9, the “conversion Reb D to Reb M after 24 h” value is on record as 5.3% and the initial rate amounted to 1.5E+06 Reb M area/min.
With B10, the initial rate is given as 3.3E+07 Reb M area/min.
The same measure, in the same setting: next, B11: 4.1E+07 Reb M area/min.
Regarding B12, the “conversion Reb D to Reb M after 24 h” value turned out to be 0.2% and the initial rate is −3.3E+04 Reb M area/min.
Take B13: the “conversion Reb D to Reb M after 24 h” value is listed as 52.0% and the initial rate came to 4.9E+07 Reb M area/min.
The corresponding values for B14 are 1.8% and 1.9E+06 Reb M area/min.
Take B15: the “conversion Reb D to Reb M after 24 h” value came to 5.6% and the initial rate came out at 1.5E+06 Reb M area/min.
With B16, the “conversion Reb D to Reb M after 24 h” value turned out to be 0.5% and the initial rate is recorded as 2.3E+04 Reb M area/min.
The corresponding values for B17 are 1.8% and 7.5E+05 Reb M area/min.
As to B18, the “conversion Reb D to Reb M after 24 h” value was found to be 1.9% and the initial rate is 5.0E+05 Reb M area/min.
On to B19, for which the initial rate was determined as 5.5E+06 Reb M area/min.
Take B20: the “conversion Reb D to Reb M after 24 h” value came to 0.7% and the initial rate turned out to be 7.2E+05 Reb M area/min.
B21 yielded an initial rate of 2.4E+07 Reb M area/min.
